Reference: patent US10487308B2, “Culture medium composition” (NISSAN CHEMICAL CORPORATION, priority 2014, dated 2019)

Assay: Viscosity measurement and state of medium composition
Assay type: physicochemical
Details: for viscosity: 37° C., 100 rpm
Method: Deacylated gellan gum (KELCOGEL CG-LA, manufactured by SANSHO Co., Ltd.) was suspended in pure water to 0.4% (w/v), and dissolved by stirring with heating at 90° C. This aqueous solution was allowed to cool to room temperature with stirring, and sterilized at 121° C. for 20 min in an autoclave. A 2-fold concentration of DMEM/F-12 medium (manufactured by Aldrich, 50 mL) and sterilization water (47.5 mL) were placed in a 300 mL tall beaker with stirring by a homomixer (3000 rpm) at room temperature, aqueous deacylated gellan gum solution (2.5 mL) was added, and the mixture was continuously stirred for 1 min to prepare a deacylated gellan gum medium composition with a final concentration of 0.01%. Medium compositions added with aqueous deacylated gellan gum solution with final concentrations of 0.02, 0.03 and 0.05% (w/v) were similarly prepared. The viscosity of the medium compositions was measured using an E type viscometer (manufactured by Toki Sangyo Co., Ltd., Viscometer TVE-22 L, standard roter 1° 34′×R24) under 37° C. condition at 100 rpm for 5 min.
The medium compositions prepared above were subjected to a suspension test of HeLa cell spheres and a viscosity measurement, in the same manner as with the deacylated gellan gum-containing medium. The viscosity of 1.0% (w/v) methylcellulose was measured at 50 rpm due to the measurement range of the apparatus.
In the same manner as in Reference Experimental Example 2, spheres of HeLa cells were formed, and several tens of the spheres were added to each medium (1 mL) prepared above, the mixture was stood still at 37° C. for 1 hr, and the suspended state of the sphere cells was visually observed. […] Furthermore, it was confirmed that addition of an equal amount of the medium to the cell suspension and centrifugation (300 to 400G, for 5 min) thereof result in sedimentation and recovery of the spheres of HeLa cells.
By a method similar to that for the polysaccharide mixture of Reference Experimental Example 9, DMEM/F-12 media containing deacylated gellan gum at a final concentration of 0.005, 0.01% (w/v) and other polysaccharide were prepared. The final concentration of polysaccharide was set to 0.1% (w/v) for xanthan gum, sodium alginate, locust bean gum, 0.2% (w/v) for methylcellulose, and 0.05% (w/v) for K-carageenan and diutan gum. The state of each medium composition and the viscosity measured by a method similar to that in Analysis Example 1 are shown in Tables 11-16.

## collagen
0.01% (w/v) in DMEM/F-12
  state: liquid
0.05% (w/v) in DMEM/F-12
  state: liquid/solid
  viscosity: unmeasurable
0.1% (w/v) in DMEM/F-12
  state: solid (gel)
  viscosity: unmeasurable
0.2% (w/v) in DMEM/F-12
  state: solid (gel)
  viscosity: unmeasurable
